The values below come from publication PMC5389901.

The data set concerns the target INSM1 ZF4-5 (Homo sapiens, UniProt Q01101 424-497). Briefly: ITC. (In general: In ITC the heat of successive injections is recorded.)

Sequence of INSM1 ZF4-5 (Q01101 424-497): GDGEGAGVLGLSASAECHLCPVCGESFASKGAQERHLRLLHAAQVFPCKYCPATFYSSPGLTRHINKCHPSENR

B1: INSM1 consensus dsDNA (dsDNA)
DNA 1: TGTCAGGGGGCA
DNA 2: TGCCCCCTGACA
As for B1, the Kd – broadly, the free concentration of one partner at which half of the binding sites on the other are occupied at equilibrium, for simple one-to-one binding – was found to be 21.8 µM. In other words, the double-digit micromolar range.
